Test: soluble on expression in E. coli; label from the status in PepcDB or PDB records

| Sequence | soluble on expression in E. coli |
| --- | --- |
| MGEEILTERNQLSRQDASCFRSPRSPLGRTDDAFFELDDDDDLSSPSVPGSPVDPPSISVPLPPKSAPPCPTQPAPLTNGDLYPTILSNGTPIPNGRITPALSTVSVSLIHEARLQQSLSTPCNGSEEEMHNGQVRKESEYRRFKSEGSTAGASLPAAEKTHMDELSPVDQRSTSGTARFLIQQDSVVNPSTKMSNTEQVAMMHTLKTKLSKYQAMMDKAFEEIAKVEDANIIEGCTIVRKLMRKVWNTPKVSADLANALCDYLRDRDYFDKLIKMFISPNTAACDQVRMECGKVLEECTSSANLEYIVNKSYTKKIMIVAMKLNKTPDQQRLSLSLIGNLFKHSNAVSLSLIETDVIDHIILTFKRAPECPDILRHAALALANILLYTCFEGKKKIIQKKIPEWLFFLASQADDVTRYYACIAVCTIVSVKEFEPLVRKSDTMKLVEPFLQVHDPATFARDYHKYAQGNTKEWLERLLPMLQPSRRREARSVAAFHFTLEATIKKEQNKLDVFQEIGAIQALKEVASSPDEVAAKFASEALTVIGEEVPYKLAQQVPGWTCADVQYWVKKIGFEEYVEKFAKQMVDGDLLLQLTENDLKHDVGMISGLHRKRFLRELQTLKVAADYSSVDESNLDNFLMGLSPELSVYTYQMLTNGVNRSLLSSLTDEMMQNACGITNPIHRLKLTQAFETAKHPDDVEVAMLSKQIDVFISYRRSTGNQLASLIKVLLQLRGYRVFIDVDKLYAGKFDSSLLKNIQAAKHFILVLTPNSLDRLLNDDNCEDWVHKELKCAFEHQKNIIPIFDTAFEFPTKEDQIPNDIRMITKYNGVKWVHDYQDACMAKVVRFITGELNRTTPTTKEMPSISRKTTQQRWQTTNTVSRTGPSRSIGGPRMEPPTPTFFSVTPTGSQERATSTRRKIQPSASTTSDRN | not soluble |
| SLPVRESLQKQVKILIGLGNLGFGGYRGLYTRFTNPNGFLEPASSDLLLINERRNLSVIGAVSRTFSVPSVSGPAFQVCGYHIDLLLSDPCKSMASLGSKSLFVDRHSASLVSKRFTGGMVSGDGPNRGRISMRLRGKDHNEKSTICAYFAYRGAKRWIYLNQQRRGMGFRGLHSSLSNRLSAGNAPDVSLDNSVTDEQVRDSSDSVAAKLCTKPLKLVSGSCYLPHPDKEATGGEDAHFICAEEQALGVADGVGGWAELGIDAGYYSRELMSNSVNAIQDEPKGSIDPARVLEKAHTCTKSQGSSTACIIALTNQGLHAINLGDSGFMVVREGHTVFRSPVQQHDFNFTYQLESGRNGDLPSSGQVFTVAVAPGDVIIAGTDGLFDNLYNNEITAIVVHAVRTNIDPQVTAQKIAALARQRAQDKNRQTPFSTAAQDAGFRYYGGKLDDITVVVSYVAASKEEGKH | soluble |
| MSLFSDVAETSSFVFAVAGADDEVVLETIRLALKQKLGKFLLFGKKEDKTLTANESVTWIQTDTAEAAAQGAILAVKNKEADILVKGFIPTATLMHHVLKKENGLRTDQLLSQIAIFDIPTYHKPLLITDCAMNVAPKTKEKIAITENALAVAHQIGITNPKIALLSAVEEVTAKMPSTLEAQEVVQHFGNQISVSGPLALDVAISKEAALHKGITDSSAGEADILIAPNIETGNALYKSLVYFAGAKVGSAVVGAKVPIVISSRNDSPENKLASFILTVRLVEKEGHHHHHH | soluble |
| QKSNRKDYSLTMQSSVTVQEGMCVHVRCSFSYPVDSDTDSDPVHGYWFRAGNDISWKAPVATNNPAWAVQEETRDRFHLLGDPQTKNCTLSIRDARMSDAGRYFFRMEKGNIKWNYKYDQLSVNVTALTHRP | soluble |
| MSSGKVIVYGGKGALGSAILEFFKKNGYTVLNIDLSANDQADSNILVDGNKNWTEQEQSILEQTASSLQGSQVDGVFCVAGGWAGGSASSKDFVKNADLMIKQSVWSSAIAAKLATTHLKPGGLLQLTGAAAAMGPTPSMIGYGMAKAAVHHLTSSLAAKDSGLPDNSAVLTIMPVTLDTPMNRKWMPNADHSSWTPLSFISEHLLKWTTETSSRPSSGALLKITTENGTSTITPQ | soluble |
| KDFTWNTGVTYSMNKNKILTLADNAINPITREKFSISSLNMGGLGSTRFILKEGGSMGDIYSLMDLKRDANGAVYIDENNSVVTESLEANNYIKLGSVLPKGNLAWRNNFSWKNINVAFLVSARLGGVVFSRTQAVLDNFGVSEASAAARDKGYVSVNGNDRVNPEGWYSVVAGGTAVPQYYIYSATNIRLQEASIGYTIPRKWLGNVCDIKVSLIGRNLWMIYNKAPFDPESVASTDNFYQGIDYFMMPSLRNIGFNLSFKF | not soluble |
| MSLAYQSEYALENEMMNQLEQLGYERVTIRDNKQLLDNFRTILNERHADKLEGNPLTDKEFQRLLTMIDGKSIFESARILRDKLPLRRDDESEIYLSFLDTKSWCKNKFQVTNQVSVEDTYKARYDVTILINGLPLVQVELKRRGIDINEAFNQVKRYRKQNYTGLFRYIQMFIISNGVETRYFSNNDSELLKSHMFYWSDKQNNRINTLQSFAESFMRPCQLAKMISEGHHHHHH | soluble |
| MAELWEIVSFLDEYLKISEYPDKSSNGLQVEGKEEVNTIAFAVDACLDTIVKARAFNADMLIVHHGLIWGGVKYVKGLFAKRVKELLKSNMNLYAAHLPLDAHPEVGNNAQLLKLLGLEPKEKFGEYHGVMIGYIGEFEEEKPLPLIAQMLAEKLPVDYVKSYEFGVQEIKRVGVVSGGGGFAVEEASEKGVDLFITGEFTHEDYRAAEDLRLSVIAAGHYATETLGVKALMPILREKFGVKTIFIDSPTGLLEHHHHHH | soluble |
| MSSEPTSSIESDNLRRSKRKKFKLDFVAAAHGNNQKKSRKDPHGQGDDDDDTFDDDLNHFEPLSVLTEQDVSMEMFEDDEEDTVSRRRTRRSTAHFQDYQEPDRWIENSGPHACHKCPSRYESKSSLANHTKMHLGEKRKFACELCDFSASTLKSLTHHNNIHQNFGVLSQQTSPVIPVASSADSTLNSSINSTGCQINAPPAPKLDEEAPIAVESVVVHHEDVAEFDTTPPPILEREDDGPPVLIREAPVRKSNRPMKPTQKAQKMTKQRERKSKTVESPKGSLPSSSASSVTPPPVRKDVEKPKIFVKTTKKNLKKTMKITKVRQRCPHCPFTTSTVTRLNRHSGGHKLKEGYICPSENCNFMCRKAGFLQKHYILHKGTLPWPPEYVKKGGAKMKRTFPESEEKKIEVTEKVQKMKKMHKRRANTVQVVAKAQLKSYIKVEVDDVIFKKCNIGECEFLTQTLTQLIVHKVKTHDTKTAFPQHRFLCLTCGHRAKSYAALRTHKLIEHTSTHKRFHRTYYLKECVGDKFFVKYNLSKVQEEVKEEPKEADGDESGDESFDSMCPASDVHPETLAAIEMKDVFFCCNMCPYKAPTMNRCQRHYDKHFKNDEFKCQYCSWSSRSKEVIVNHEKLHPTVVVANTNEAPVVKNEIEAKVEVLSKTVSSPVECTEESSLSKSIQLWCQREKLRHPELDEQFTRKMIDGVKGFQCTDCPYTSKYRGDMRSHKKRHDIEQLYRCVQCTYTTNRPVSLKDHLKQHAIVNMSIADIKSRRVVVNQGVKIGMRRGVGKDKIYCCDKCPYVTLALGCLWRHHRNHRDTAKINICSNCSYSSIDQRKMEEHTIIHLGLGLNEAVPFVKRVDQKGRPVSSLTDLNSEKMNERKSTKRKMLDKVEKMEVGEDEEDDEESVDKGTDDGDYKQRPEKKRKQSSEEPASDPELFGSSSQPTRQLSERATRNRINYSLLSKNGSGKPTPSTSSANLEKLAGSSGGASSESPEPDESVEVSHWKIRTFLRSEYGVKESLKCPDCPYKSSEPDVLEKHRYYHMTKTTPRPYACSDCTFNTYTPTALLQHLKLHSEGVYFDPMVKKHMKHRKGDSIPPGVKGYYCKNCSFKTSIHRNFIEHSAYHRQQLINRINITLKRQPPRIEYQRPKLKHQFVAKNAKYCKKCTFKCVSQSNFIEHLDRHGWNQLYKCYSCDYSDNTKSVVDFHQLNHHIVKDQTLHSICQSAKFRLENGVIQIPETEKSKPTPDEFVSKTRGLLKCPSCEYFCHVSSELAFHMSVHHLTEPNARETISYLHMGLVPPKATVTTV | not soluble |
| MDRKFNSDEQWYISPLLNLATVKEEMLEVRELGEVIIDRTMDDFDSKTEKEHEMEMWKNSLSYIQGVTEEESLEAIEEVSNLDMFLEGSSDVQTRRFEDMKGDRKFLERSPLVSHKHVISREKTMKTSRQRKSAYVTSLKYDKYMLNAGANTSLFHPQCSILEKCEDDIVLIVDALMPYNRELLSSELRSSRLLKPMTKFLVRGDTLLSDLRQKFVCQSDTIVPLENGLELDPPNLDNATAVRFPSSFIFVHDTFYVDMPPNAIDISHPIRNFMLHREIYDPVEACSMEGVRIIDLKLRLGQPYIFQHSGNCEHLLVFHDLRLLHESDPWGIDKYPFTLYEKGNEKKCDICKKGHVEFVVERHELLPNTYTHFCRTCFQEFNYVHGVKTHSFIAWPYTELQTGEQRGWPFGDFEQEDD | not soluble |
| TAWILMVPIALLYVKNWEEECCKQKKEEFREQFRESIQTLSAILKVGYSVENAIRETWKEICPIYKKKTRIIKEYETMVHQLDLNMTAEEVMKQFADRVKEEDVENFVTVFGAAKRLGGDSIAIIRHAADAIGEKMEVEREIQVMLTSKKLEFKIMCVIPFVIILYMRSAFPEFM | not soluble |
| MKKISIEERPDWRATAEREGFNFHTIDGERYWDERGYYLFTEQQITRDLEAPTQALHQMCMDAVARVVDSEELLHQLAIPPAFFDVIQTSWKQGHPHLYARFDFAYDGTGPAKMYEINADTPTSLMEAGAFQLLWLEEQMARGVLPAHASQFNSIAEDLVRAFAEFPGASPFYFAAMSGSVEDRVTTDFLRRMAAHVGIDARHIDIEDIGLNDQGRFVDLDGRWIERLFKLHAWEHIFHEAFGKNVTASGTQFVEPAWKAILSNKGILPLLWQFNEGHPNLLPSRVDQDVTKPVPKGWVRKPYFSREGANIEMRTPGDQVIAVDGPYTDAPYILQAYSPLPKFGDSYTLIGSWVIGDLASGIGIREDDSLITKDTSRFLPHVVID | not soluble |
| MSLSRVTEIRYVGYGVKDFDAEKAFYADVWGLEPVGEDANNAWFKAQGADEHHVVQLRRADENRIDVIALAADSRSDVDALRASVEAAGCKVASEPAVLATPGGGYGFRFFSPDGLLFEVSSDVAKGAKRDLARWEGVPVKISHIVLHSPNHQDMVKFFTDVLGFKVSDWLGDFMCFLRCNSAHHRIAILPGPPCLNHVAYDMLSVDDMMRGAHRLKVKGIDIGWGPGRHTAGNNTFSYFVTPGGFVTEYTSELEEVDFDTHQYKVHVPAPMVMDQWGIGTGGPQTLPHPHANPGLFQTAEAEGHHHHHH | soluble |
| MLYVLNKCNGLESVEIIHYNNETTDMKELVENPIIVNCKQVTISTVGGMYGSRELLMNFQIERLISGDSAIGTRFRQGSYEPDHVMSLVNSCFKDRVVNFQDHQGLRLRTDNLAKQILVKKCCRDDFEFEWGVSCRVIPSNLQDIDFEEDWPIWTDIDSDEDCDYSSDDEYEYQYNSDSD | not soluble |
| AIANFNDAKNEILQVLSKTERQHLPKLLEWIKTSDDLDDILVDNQSVILHSIAEDLRACLPMEAMAPSETLAMQKTQQKAHPTVHVDAFLYDDETVDSLCEEGKMSRTYCLNCGSHRTAPLEFISHSFSIPELQFLFHNVLPELTGKLVLDVGSRLGAVLFGGYLYSAASQLVGVEMSSEFVKLQSMAVEKYGFSDRIQVIHADIRSQIALVQKADVLIMNNVFEYFMEPRDQMQAWLYISQNFRKKGALLVTVPSIQEALGLLQDAAFLETLSLSQWIEEIPVDYSVYLKNDTDPDSLKQIHLYRVL | soluble |
| MDAKVAFSPHSDANGRLDEIGADIDTAQSSVLFSLAFLGQMTRGAIGPALGRALERPEVHVMGIADAEVRAGNLGLNVLTPDNRRRVVRAAALTGNVPPPFLTEPSGLAGVDGNQRGTRMHHKFVVLDFDKPTARVYLGSYNFSNPADDENGENLVVVRDRTVATSYMIEALRMYDHYVFRVLEHHHHHH | soluble |
